Experimental data: patent US20240350583A1, “COMPOSITION FOR PREVENTING OR TREATING FIBROTIC DISEASES, COMPRISING HAPLN1” (Chung Ang University Industry Academic Cooperation …, priority 2021, published 2024)

Assays:
[1] = tested on: SAEMyoF system (small airway epithelial cells and adult fibroblasts); assay: BioMAP Fibrosis panel, SAEMyoF system (pulmonary fibrosis model), ELISA; assay type: cell-based
Text: The anti-fibrotic action effect of the composition of the present disclosure on pulmonary fibrosis and kidney fibrosis was verified by examining the expression level of various fibrosis markers using the BioMAP Fibrosis Panel (provided by Eurofins discovery).
BioMAP Fibrosis panel consists of three models, SAEMyoF system (co-culturing small airway epithelial cells and adult fibroblasts), REMyOF system (co-culture of renal proximal tubule epithelial cells and adult fibroblasts), and MyOF system (differentiated lung myofibroblasts). Here, the SAEMyoF system represents interstitial lung diseases (IDL), including pulmonary fibrotic diseases such as idiopathic pulmonary fibrosis (IPF), and the REMyOF system represents kidney fibrosis disease, which is associated with end-stage renal failure. However, experiments were conducted to confirm the effect of the MyoF system only on myofibroblasts.
(1) Each primary cell was used by pooling cells from multiple donors (n=3 to 6), and cells were first cultured in 96-well plates to confluence before adding a peripheral blood mononuclear cell (PBMC).
(2) Subsequently, the cells were then each treated with the composition of the present disclosure (rhHAPLN1 protein content of 0, 3.7, 11, and 33 ng/ml) at different concentrations and cultured for 1 hour.
(3) The plates were then treated with TNF and TGFβ1 and incubated for 48 hours.
(4) Direct enzyme-linked immunosorbent assay (ELISA) was performed on the expression levels of various biomarkers.
Each quantitative value was compared as a relative fold change compared to the vehicle control. Statistical processing was performed using unpaired t-test, significant differences vs vehicle control, *p<0.05, **p<0.01, and ***p<0.001.

[2] = tested on: bleomycin-induced pulmonary fibrosis (BIPF); assay: Bleomycin-induced pulmonary fibrosis mouse model, prevention (inhalation from day 1); assay type: in vivo; settings: for Ashcroft score (normal 0, control 6.25): nebulized 1 hour once daily for 10 days from 1 day after bleomycin
Method: The experimental animals used were 8-week-old female C57BL/6N (KBSI, Daejeon, Korea) mice, and were set as a normal control group (Normal, PBS) and two dose of administration groups (composition of the present disclosure including rhHAPLN1 protein). The water was changed every two days and the mice were allowed to eat ad libitum, and the mice were placed in one cage of four, and the temperature in the room was kept at 21° C. to 24° C. and the humidity at 40% to 60%, and the day and night cycles were 12 hours each.
To establish a bleomycin-induced pulmonary fibrosis (PF) model, 8-week-old female C57BL/6N mice were used, and divided into 4 groups (Normal, Control, 0.0005% (w/w) rhHAPLN1, 0.0015% (w/w) rhHAPLN1), with 4 mice per group, and the IPF disease induction method was referred to the paper by Liu et al. (Methods in Molecular Biology 2017, DOI: 10.1007/978-1-4939-7113-8_2) (see FIG. 12A). Administration of bleomycin (Bleomycin sulfate from Streptomyces verticillus. B8416; Sigma-Aldrich Co.) to induce idiopathic pulmonary fibrosis (IPF) was performed using a 1 ml-syringe and an oral dosing needle (Oral Zonde Needle 0.9×50 mm; 20 Guage) was used to anesthetize the patient and then carefully instillated orally intratracheally in a single 25 μl dose at a concentration of 2 U/kg, followed by nebulization with fresh 10 ml phosphate-buffered saline (1×PBS, pH 7.4; Gibco Co.) added dropwise to a nebulizer to generate nebulization and be freely inhaled.
Starting 1 day after bleomycin administration, the control was a mixture of 50 μl of a stock solution consisting of 20 mM Tris-HCl, 0.5 M NaCl, pH 8.0, 50% glycerol and 10 ml PBS (1×, pH 7.4, Gibco Co.) solution, while the two groups for the compositions of the present disclosure were treated with 50 μl of rhHAPLN1 stock solution at a rhHAPLN1 weight ratio concentration of 0.0005% (w/w), in other words, 5,000 ng/ml, and 0.0015% (w/w), in other words, 15,000 ng/ml, respectively, were mixed in 10 ml PBS (1×, pH 7.4, Gibco Co.) and administered to each group once a day for 1 hour by nebulization via the nebulizer described above. The weight of each experimental animal was measured every 2 days to confirm that there was no change in weight, and a mass dosing system and aerosol chamber (Data Science International Co.) were used to generate the mist. […]
Next, three tissue slides were prepared per mouse by cutting the middle portion of the left large lobe of the mouse, and three sections were photographed randomly on one slide, and then, for a total of nine sections, the stained darker part was distinguished from the unstained white part, and the area of the stained darker part was measured using Image J software, and each figure obtained was averaged to obtain an average value per mouse. […]

[3] = tested on: renal proximal tubule epithelial cell (RPTEC); assay: Age-induced fibrosis of RPTEC (passage 11), αSMA western blot; assay type: cell-based; settings: aged cells (P11); rhHAPLN1 100 ng/ml; 72 hours
Method: (1) Renal proximal tubule epithelial cell (RPTEC) of the 3rd passage culture and 10th passage culture were seeded (5.0×10^5 cells) in 60Φ culture dishes and cultured in complete renal epithelial cell medium (ATCC PCS-400-030+ATCC PCS-400-040) in an incubator at 37° C. 5% CO2 for 24 hours.
(2) Subsequently, the cells were then treated with the composition of the present disclosure (rhHAPLN1 protein content of 0, 10, and 100 ng/ml, respectively) and cultured for an additional 72 hours.
(4) After washing three times with ice-cold PBS, each well was treated with 300 μl of RIPA lysis and extraction buffer including protease inhibitors and phosphatase inhibitors, scraped with a scraper to harvest cells, and transferred to an E-tube.
(5) By centrifugation (12000 rpm, 20 minutes, 4° C.), only the supernatant was obtained, and BCA assay was performed to obtain quantitative protein values.
(6) Using a 4% to 15% precast acrylamide PAGE gel, proteins were loaded at 20 μg per lane and run (80V-20 minutes, 120V-1 hour 30 minutes).
(7) Western blot was performed on the samples. Here, anti-αSMA Ab (Abcam, ab7817), anti-GAPDH Ab (Santa Cruz, sc-32233) were used as primary antibodies and HRP-conjugated anti-mouse IgG Ab (CST, #7076) as secondary antibodies.

B1: rhHAPLN1: recombinant human HAPLN1 protein of SEQ ID NO: 1 produced in CHO-K1 cells, stabilized in acetic acid buffer, sucrose, PS80, pH 5.0 (protein, listed as Homo sapiens)
chain: MKSLLLLVLISICWADHLSDNYTLDHDRAIHIQAENGPHLLVEAEQAKVFSHRGGNVTLPCKFYRDPTAFGSGIHKIRIKWTKLTSDYLKEVDVFVSMGYHKKTYGGYQGRVFLKGGSDSDASLVITDLTLEDYGRYKCEVIEGLEDDTVVVALDLQGVVFPYFPRLGRYNLNFHEAQQACLDQDAVIASFDQLYDAWRGGLDWCNAGWLSDGSVQYPITKPREPCGGQNTVPGVRNYGFWDKDKSRYDVFCFTSNFNGRFYYLIHPTKLTYDEAVQACLNDGAQIAKVGQIFAAWKILGYDRCDAGWLADGSVRYPISRPRRRCSPTEAAVRFVGFPDKKHKLYGVYCFRAYN
Question: Which results are given for B1?
Answer: expression level of collagen I compared to vehicle control (FIG. 11A) ([1]; regardless of rhHAPLN1 content (3.7, 11, 33 ng/ml)): consistently significantly reduced; expression level of αSMA, fold change compared to vehicle control (FIG. 11A) ([1]; regardless of rhHAPLN1 content (3.7, 11, 33 ng/ml), TNF and TGFβ1 48 hours): ≤ 0.9 fold; expression level of collagen I, fold change compared to vehicle control (FIG. 11A) ([1]; rhHAPLN1 11 ng/ml): ≤ 0.8 fold; Ashcroft score (normal 0, control 6.25) ([2]; composition 1, rhHAPLN1 0.0005% (w/w)): 5.25; Ashcroft score (normal 0, control 6.25) ([2]; composition 2, rhHAPLN1 0.0015% (w/w)): 0.5; H&E lung tissue form (FIG. 12B) ([2]; rhHAPLN1 0.0015% (w/w)): quite similar to that of the normal group; average area of dark (fibrotic) H&E-stained lung area compared to control (FIG. 12C) ([2]; rhHAPLN1 0.0015% (w/w)): reduced to be quite close to the normal group; decrease of expression amount of αSMA protein compared to composition without rhHAPLN1 (FIG. 9B) [3]: about ⅓
